Non-standard residues stand in square brackets, D forms with d. Primed or numbered codes have the meaning given here. No end group written: not given here. Me2s″ = symmetric dimethylarginine (Rme2s); Arg(Me2a) = CN(C)C(=N)NCCC[C@H](N)C(=O)O; Lys(Me3) = C[N+](C)(C)CCCC[C@H](N)C(=O)O; Arg(Me2s) = CN=C(NC)NCCC[C@H](N)C(=O)O; pT = C[C@@H](OP(=O)(O)O)[C@H](N)C(=O)O; Lys(Me2) = CN(C)CCCC[C@H](N)C(=O)O; pS = N[C@@H](COP(=O)(O)O)C(=O)O; Lys(Me) = CNCCCC[C@H](N)C(=O)O

For experiment [1], the target named is T1, Bdf1 bromodomain 2 (GST-tagged, WT) (Saccharomyces cerevisiae (strain ATCC …, UniProt P35817)).
T1 chain: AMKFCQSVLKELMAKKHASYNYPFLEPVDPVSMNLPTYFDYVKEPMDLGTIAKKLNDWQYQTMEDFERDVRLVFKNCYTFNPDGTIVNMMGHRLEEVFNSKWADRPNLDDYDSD
In words: histone peptide array probed with recombinant GST-bromodomain, signal normalised to myc peptide control.

For experiment [2], the target named is T2, Bdf1 bromodomain 1 (GST-tagged, WT) (Saccharomyces cerevisiae (strain ATCC …, UniProt P35817)).
T2 chain: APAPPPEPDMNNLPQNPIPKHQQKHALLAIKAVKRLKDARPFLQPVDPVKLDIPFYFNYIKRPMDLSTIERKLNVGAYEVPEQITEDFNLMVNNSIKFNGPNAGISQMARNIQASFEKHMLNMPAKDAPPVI
Described as above.

B1: H4 1-19 (peptide)
chain: SGRGKGGKGLGKGGAKRHR
modifications: S G Rme2s G K G G K G L G K G G A K R H R
For the molecule B1, the binding score came out at 0 in experiment [1] and 0.00646 in experiment [2].

B2: H3 16-35 (peptide)
chain: PRKQLATKAARK(Me)[pS]APATGG
Consider B2, for which the binding score turned out to be 0 in experiment [1] and 0.0151 in experiment [2].

B3: H3 1-19 (peptide)
chain: A[Arg(Me2s)]T[Lys(Me)]QTA[Arg(Me2s)][Lys(Me2)]STGGKAPRKQ
For B3, the results for the binding score in experiment [1] and in experiment [2] were 0 and 0.00197, respectively.

B4: H3 1-19 (peptide)
chain: ARTKQTARKSTGGKAPRKQ
modifications: A R T K Q T A R K pS T G G Kac A P R K Q
Consider B4, for which the values for the binding score in experiment [1] and in experiment [2] were 0.115 and 0.0299, respectively.

B5: H3 16-35 (peptide)
chain: PRKQLATKAAR(Me2s″)K[pS]APATGG
In the case of B5, the binding score in experiment [1] and in experiment [2] was 0 in each case.

B6: H2a 1-19 (peptide)
chain: SGRGKQGGKARAK(Ac)AKSRSS
As for B6, the values for the binding score in experiment [1] and in experiment [2] were 0.0115 and 0.00932, respectively.

B7: H3 1-19 (peptide)
chain: ARTKQTARKSTGGKAPRKQ
modifications: A R T K Q T A R K pS T G G K A P R K Q
For B7, the binding score in experiment [1] and in experiment [2] was 0 in each case.

B8: H3 16-35 (peptide)
chain: PRKQLATKAA[Arg(Me2s)][Lys(Me2)][pS]APATGG
Take B8: the binding score in experiment [1] was determined as 0; in experiment [2] it was 0.017.

B9: H3 1-19 (peptide)
chain: ARTKQTA[Arg(Me2a)][Lys(Me3)]S[pT]GGKAPRKQ
On to B9, for which the binding score in experiment [1] and in experiment [2] was 0 in each case.

B10: H3 1-19 (peptide)
chain: ARTKQTARKSTGGKAPRKQ
modifications: A R T K Q T A Rme2a Kme2 S pT G G K A P R K Q
Take B10: the binding score worked out at 0 in experiment [1] and 0.00323 in experiment [2].

B11: H3 1-19 (peptide)
chain: ARTKQTARKSTGGKAPRKQ
modifications: A R T K Q T A R Kme3 S T G G Kac A P R K Q
In the case of B11, the binding score in experiment [1] amounted to 0.0479; in experiment [2] it was 0.0133.

B12: H3 16-35 (peptide)
chain: PRKQLATKAAR[Lys(Me)]SAPATGG
Turning to B12, the binding score in experiment [1] and in experiment [2] was 0 each time.

B13: H4 1-19 (peptide)
chain: SGRGKGGKGLGKGGAKRHR
modifications: S G R G K G G K G L G Kac G G A K R H R
In the case of B13, the binding score in experiment [1] is 0.0271; in experiment [2] it was 0.00448.

The record behind these values is publication PMC5261807 (2017).
